Where a chain is given by its changes, count along the chain named.
Tests used:
[1] = target: T1, GST–14-3-3ζ Ser184A (UniProt P63104 1-245, Ser184A); assay: pull-down
T1 sequence (looked up): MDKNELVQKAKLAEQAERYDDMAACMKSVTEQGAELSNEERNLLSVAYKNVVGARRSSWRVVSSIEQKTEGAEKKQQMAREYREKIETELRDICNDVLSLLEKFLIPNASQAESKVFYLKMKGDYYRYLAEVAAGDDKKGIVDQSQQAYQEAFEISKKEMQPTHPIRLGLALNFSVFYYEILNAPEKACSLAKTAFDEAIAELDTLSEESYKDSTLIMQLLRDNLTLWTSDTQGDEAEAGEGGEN

[2] = target: T2, GST–14-3-3ζ (WT) (UniProt P63104 1-245); assay: pull-down
T2 sequence (looked up): T1 sequence (looked up) with A184S

B1: His-tagged Bad wild type, phosphorylated by CA-Akt (natural protein, mouse, UniProt Q61337 1-204, looked up)
chain: MGTPKQPSLAPAHALGLRKSDPGIRSLGSDAGGRRWRPAAQSMFQIPEFEPSEQEDASATDRGLGPSLTEDQPGPYLAPGLLGSNIHQQGRAATNSHHGGAGAMETRSRHSSYPAGTEEDEGMEEELSPFRGRSRSAPPNLWAAQRYGRELRRMSDEFEGSFKGLPRPKSAGTATQMRQSAGWTRIIQSWWDRNLGKGGSTPSQ
modifications: phosphoserine at 136 (by CA-Akt in vitro)
binding result [1]: binds

B2: His-tagged Bad Ser128A-Thr201A, phosphorylated by active Akt (natural protein, mouse, UniProt Q61337 1-204, looked up)
chain: B1 chain with S128A, T201A
modifications: phosphoserine at 136 (by CA-Akt in vitro)
binding result [2]: binds

B3: His-tagged Bad Ser128A, phosphorylated by active Akt (natural protein, mouse, UniProt Q61337 1-204, looked up)
chain: B1 chain with S128A
modifications: phosphoserine at 136 (by CA-Akt in vitro)
binding result [2]: binds

B4: His-tagged Bad Thr201A, phosphorylated by active Akt (natural protein, mouse, UniProt Q61337 1-204, looked up)
chain: B1 chain with T201A
modifications: phosphoserine at 136 (by CA-Akt in vitro)
binding result [2]: binds
